Common to all, as to experiment: cell_activity; 293H endogenous locus, 5 ug plasmid
Details in all cases: tags: RM2 linker between monomers

Data set [1] addresses T1, SCOH-NANOG2 pCLS4415 (single-chain I-CreI variant).
T1 chain: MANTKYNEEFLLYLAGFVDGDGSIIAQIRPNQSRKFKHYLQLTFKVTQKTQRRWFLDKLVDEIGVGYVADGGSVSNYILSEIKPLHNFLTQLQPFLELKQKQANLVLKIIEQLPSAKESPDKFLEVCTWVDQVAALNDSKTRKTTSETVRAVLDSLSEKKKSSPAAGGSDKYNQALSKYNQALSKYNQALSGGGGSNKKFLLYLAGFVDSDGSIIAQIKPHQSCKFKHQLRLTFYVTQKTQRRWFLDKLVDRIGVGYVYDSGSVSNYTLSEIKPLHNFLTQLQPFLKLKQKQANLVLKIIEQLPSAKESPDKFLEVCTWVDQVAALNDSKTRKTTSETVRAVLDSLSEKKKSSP
How it is done:
(§1) Single Chain I-CreI variants targeting respectively NANOG2 and NANOG4 targets were cloned in the pCLS1853 plasmid. The resulting plasmids, respectively pCLS4415, pCLS4416, pCLS4417, pCLS4418, pCLS4421 and pCLS4422 were used for this experiment. The day of […], cells from the human embryonic kidney cell line, 293-H (Invitrogen) were seeded in a 10 cm dish at density of 1×10⁶ cells/dish. The following day, cells were transfected with 10 μg of total DNA corresponding to the combination of an empty plasmid with a meganuclease-expressing plasmid using lipofectamine (Invitrogen). Plasmid ratio (empty/meganuclease plasmid) used were 10 μg/0 μg, 9 μg/1 μg, 5 μg/5 μg 0 μg/10 μg. 48 hours after transfection, cells were collected and diluted (dilution 1/20) in fresh culture medium. After 7 days of culture, cells were collected and genomic DNA extracted. 300 ng of genomic DNA were used to amplify the endogenous locus surrounding the meganuclease cleavage site by PCR amplification.
(§2) PCR amplification was performed to obtain a fragment flanked by specific adaptator sequences (SEQ ID NO 63; 5′-[…]-3′ and SEQ ID NO 64; 5′-[…]-3′) provided by the company offering sequencing service (GATC Biotech AG, Germany) on the 454 sequencing system (454 Life Sciences). An average of 18,000 sequences was obtained from pools of 2 amplicons (500 ng each). After sequencing, different samples were identified based on barcode sequences introduced in the first of the above adaptators.
(§3) Sequences were then analyzed for the presence of insertions or deletions events (InDel) in the cleavage site of each NANOG target.

For data set [2], the target named is T2, SCOH-NANOG2 pCLS4416 (single-chain I-CreI variant).
T2 chain: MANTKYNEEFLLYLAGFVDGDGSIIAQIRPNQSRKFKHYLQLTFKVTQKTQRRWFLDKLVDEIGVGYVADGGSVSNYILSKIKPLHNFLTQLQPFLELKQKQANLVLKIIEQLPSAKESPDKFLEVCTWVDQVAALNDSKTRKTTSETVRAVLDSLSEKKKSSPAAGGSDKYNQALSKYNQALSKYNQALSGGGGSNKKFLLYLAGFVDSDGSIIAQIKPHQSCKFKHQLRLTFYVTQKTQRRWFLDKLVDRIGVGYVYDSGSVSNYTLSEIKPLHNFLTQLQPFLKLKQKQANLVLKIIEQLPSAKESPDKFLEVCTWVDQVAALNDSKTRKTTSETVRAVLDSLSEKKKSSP
How it is done: as §1, §2, §3

Data set [3] deals with T3, SCOH-NANOG2 pCLS4418 (single-chain I-CreI variant).
T3 chain: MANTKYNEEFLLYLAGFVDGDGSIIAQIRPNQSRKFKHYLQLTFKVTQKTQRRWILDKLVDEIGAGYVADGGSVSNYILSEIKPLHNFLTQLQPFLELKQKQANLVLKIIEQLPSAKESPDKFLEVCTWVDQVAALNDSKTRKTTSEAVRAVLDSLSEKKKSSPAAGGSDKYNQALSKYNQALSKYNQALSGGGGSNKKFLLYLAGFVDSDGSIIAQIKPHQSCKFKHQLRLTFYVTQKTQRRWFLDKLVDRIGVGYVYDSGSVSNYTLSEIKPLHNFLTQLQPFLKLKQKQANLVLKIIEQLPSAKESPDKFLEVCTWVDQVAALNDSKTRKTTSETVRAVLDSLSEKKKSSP
Here is the method:
as §1, §2, §3

B1: NANOG2 (NANOG2.1) target (dsDNA)
DNA 1: CCAACATCCTGAACCTCAGCTACA
DNA 2: TGTAGCTGAGGTTCAGGATGTTGG
Turning to B1, the activity in data set [1] was determined as 0.276 % InDel; in data set [2] it was 0.222 % InDel; in data set [3], 0.317 % InDel.
